Source: patent US20200079833A1 (AstraZeneca / MedImmune, published 2020)
Starred links: 1 amine or outer side, 2 acyl side, 3 side chain; linkers in the order of their positions; H or OH if unused. Non-standard residues stand in square brackets, D forms with d. Groups on a side chain read outwards from the residue. Primed or numbered codes have the meaning given here. No end group written: not given here. *: point of attachment. Tyr(OMe) = COc1ccc(C[C@H](N[*:1])C(=O)[*:2])cc1; γGlu = O=C(O)[C@H](CCC(=O)[*:2])N[*:1]; Stearoyl = CCCCCCCCCCCCCCCCCC(=O)*; Palmitoyl = CCCCCCCCCCCCCCCC(=O)*; αMeF = C[C@](N)(Cc1ccccc1)C(=O)O; Myristoyl = CCCCCCCCCCCCCC(=O)*; αMeK = C[C@](N)(CCCCN)C(=O)O; Lauroyl = CCCCCCCCCCCC(=O)*; αMeS = C[C@](N)(CO)C(=O)O; Nle = CCCC[C@H](N)C(=O)O; PEG2′ = not defined here; Aib = CC(C)(N)C(=O)O

T1: glucose-dependent insulinotropic peptide (gastric inhibitory polypeptide) receptor (GIPR), primary cAMP assay (human, UniProt P48546 22-466)
T1 sequence (looked up): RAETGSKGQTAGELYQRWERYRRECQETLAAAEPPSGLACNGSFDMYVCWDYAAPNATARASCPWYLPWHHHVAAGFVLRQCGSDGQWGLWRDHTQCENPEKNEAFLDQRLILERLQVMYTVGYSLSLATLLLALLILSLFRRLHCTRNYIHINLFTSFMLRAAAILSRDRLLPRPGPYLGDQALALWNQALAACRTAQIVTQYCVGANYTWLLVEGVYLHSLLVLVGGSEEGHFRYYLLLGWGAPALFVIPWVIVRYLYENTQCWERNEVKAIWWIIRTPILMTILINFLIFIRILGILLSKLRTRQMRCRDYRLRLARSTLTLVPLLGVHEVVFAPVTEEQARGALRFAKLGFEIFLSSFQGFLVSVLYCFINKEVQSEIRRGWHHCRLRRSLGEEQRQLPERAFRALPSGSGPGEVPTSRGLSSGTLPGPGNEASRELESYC

T2: GLP-1R in the INS1e assay (UniProt P32301 22-463, limits assumed)
T2 sequence (looked up): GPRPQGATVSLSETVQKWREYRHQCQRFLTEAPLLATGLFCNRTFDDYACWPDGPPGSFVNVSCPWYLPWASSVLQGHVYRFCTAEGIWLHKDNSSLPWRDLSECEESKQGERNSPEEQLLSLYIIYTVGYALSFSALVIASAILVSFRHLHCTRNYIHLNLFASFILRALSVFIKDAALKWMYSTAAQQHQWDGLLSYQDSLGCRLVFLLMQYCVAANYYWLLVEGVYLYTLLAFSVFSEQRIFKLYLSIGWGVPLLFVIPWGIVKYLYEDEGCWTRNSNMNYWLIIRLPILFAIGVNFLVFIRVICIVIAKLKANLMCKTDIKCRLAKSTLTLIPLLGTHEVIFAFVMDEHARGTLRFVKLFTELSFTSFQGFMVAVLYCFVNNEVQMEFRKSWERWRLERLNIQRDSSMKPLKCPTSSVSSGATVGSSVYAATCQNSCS


Key:
Assay in all cases: cell-based or functional assay
[1] = target: GLP-1 receptor (GLP-1R), primary cAMP assay (human, UniProt P43220 24-463)
[2] = target: glucagon receptor (GCGR), primary cAMP assay (human, UniProt P47871 26-477)
[3] = target: T1, glucose-dependent insulinotropic …
[4] = target: T2, GLP-1R in the INS1e assay

glucagon receptor (GCGR), primary cAMP assay, sequence (P47871 26-477): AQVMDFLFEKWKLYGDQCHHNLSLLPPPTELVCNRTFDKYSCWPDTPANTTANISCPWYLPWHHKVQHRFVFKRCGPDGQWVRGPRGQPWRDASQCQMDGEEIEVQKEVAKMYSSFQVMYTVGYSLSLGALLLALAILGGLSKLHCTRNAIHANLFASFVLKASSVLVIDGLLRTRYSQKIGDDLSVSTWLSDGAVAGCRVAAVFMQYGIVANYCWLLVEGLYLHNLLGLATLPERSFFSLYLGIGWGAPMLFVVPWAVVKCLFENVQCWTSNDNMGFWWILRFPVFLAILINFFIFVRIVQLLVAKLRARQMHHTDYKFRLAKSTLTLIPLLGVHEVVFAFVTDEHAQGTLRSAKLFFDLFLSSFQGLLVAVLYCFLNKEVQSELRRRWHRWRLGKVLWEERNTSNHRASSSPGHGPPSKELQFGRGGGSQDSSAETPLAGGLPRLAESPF

Primary assay EC50 (cAMP) Mean [1] | Primary assay EC50 (cAMP), n1 [1] | Primary assay EC50 (cAMP), n2 [1] | Primary assay EC50 (cAMP), n1 [2] | Primary assay EC50 (cAMP), n2 [2] | Primary assay EC50 (cAMP), n1 [3] | Primary assay EC50 (cAMP), n2 [3] | INS1e assay EC50 (cAMP) Mean [4] | INS1e assay EC50 (cAMP) n1 [4] | INS1e assay EC50 (cAMP) n2 [4] | Binder
0.0128 nM | 0.0182 nM | 0.00737 nM | 22.6 nM | 22.6 nM | 22.6 nM | 22.6 nM | 1.03 nM | 0.963 nM | 1.1 nM | H[Aib]EGS[αMeF]TSDV[αMeS]SK([PEG2′-PEG2′-γGlu-Lauroyl])LEGEAA[αMeK]EFIAWK([PEG2′-PEG2′-γGlu-Lauroyl])VEGG-NH2 [SEQ ID NO: 264]
0.0329 nM | 0.0293 nM | 0.0365 nM | 22.3 nM | 22.3 nM | 22.3 nM | 22.3 nM | 1.72 nM | 1.41 nM | 2.02 nM | H[Aib]EGS[αMeF]TSDV[αMeS]SYK([PEG2′-PEG2′-γGlu-Lauroyl])EGEAA[αMeK]EFIAWK([PEG2′-PEG2′-γGlu-Lauroyl])VEGG-NH2 [SEQ ID NO: 270]
0.0361 nM | 0.0395 nM | 0.0326 nM | 21.5 nM | 21.5 nM | 21.5 nM | 21.5 nM | 0.216 nM | 0.183 nM | 0.249 nM | H[Aib]EGS[αMeF]TSDV[αMeS]SK([PEG2′-PEG2′-γGlu-Palmitoyl])LEGEAA[αMeK]E[αMeF]IAK([PEG2′-PEG2′-γGlu-Palmitoyl])VVEGG-NH2 [SEQ ID NO: 409]
0.002 nM | 0.00196 nM | 0.00201 nM | 21.5 nM | 21.5 nM | 21.5 nM | 21.5 nM | 0.104 nM | 0.113 nM | 0.0952 nM | H[Aib]EGS[αMeF]TSDV[αMeS]SK([PEG2′-PEG2′-γGlu-Lauroyl])LEGEAA[αMeK]E[Nle]IAK([PEG2′-PEG2′-γGlu-Lauroyl])VVEGG-NH2 [SEQ ID NO: 407]
0.0336 nM | 0.0391 nM | 0.028 nM | 21.6 nM | 21.6 nM | 21.6 nM | 21.6 nM | 8.77 nM | 12.2 nM | 5.34 nM | H[Aib]EGS[αMeF]TSDV[αMeS]SK([PEG2′-PEG2′-γGlu-Palmitoyl])LEGEAA[αMeK]EFIK([PEG2′-PEG2′-γGlu-Palmitoyl])WVVEGG-NH2 [SEQ ID NO: 265]
0.0054 nM | 0.00673 nM | 0.00414 nM | 22.5 nM | 22.5 nM | 22.5 nM | 22.5 nM | 0.552 nM | 0.7 nM | 0.403 nM | H[Aib]EGS[αMeF]TSDV[αMeS]SK([PEG2′-PEG2′-γGlu-Lauroyl])LEGEAA[αMeK]EFIK([PEG2′-PEG2′-γGlu-Lauroyl])WVVEGG-NH2 [SEQ ID NO: 262]
0.0048 nM | 0.00446 nM | 0.00505 nM | 22.2 nM | 22.2 nM | 22.2 nM | 22.2 nM | 1.16 nM | 1.09 nM | 1.23 nM | H[Aib]EGS[αMeF]TSDV[αMeS]SYK([PEG2′-PEG2′-γGlu-Lauroyl])EGEAA[αMeK]EFIK([PEG2′-PEG2′-γGlu-Lauroyl])WVVEGG-NH2 [SEQ ID NO: 268]
0.0012 nM | 0.000998 nM | 0.00145 nM | 21.5 nM | 21.5 nM | 21.5 nM | 21.5 nM | 0.132 nM | 0.12 nM | 0.144 nM | H[Aib]EGS[αMeF]TSDV[αMeS]SK([PEG2′-PEG2′-γGlu-Lauroyl])LEGEAA[αMeK]EFIAK([PEG2′-PEG2′-γGlu-Lauroyl])VVEGG-NH2 [SEQ ID NO: 263]
0.187 nM | 0.248 nM | 0.126 nM | 21.5 nM | 21.5 nM | 21.5 nM | 21.5 nM | 0.78 nM | 0.698 nM | 0.862 nM | H[Aib]EGS[αMeF]TSDV[αMeS]SK([PEG2′-PEG2′-γGlu-Stearoyl])LEGEAA[αMeK]E[αMeF]IAK([PEG2′-PEG2′-γGlu-Stearoyl])VVEGG-NH2 [SEQ ID NO: 410]
0.0039 nM | 0.00405 nM | 0.00366 nM | 21.5 nM | 21.5 nM | 21.5 nM | 21.5 nM | 0.116 nM | 0.11 nM | 0.121 nM | H[Aib]EGS[αMeF]TSDV[αMeS]SK([PEG2′-PEG2′-γGlu-Lauroyl])LEGEAA[αMeK]E[αMeF]IAK([PEG2′-PEG2′-γGlu-Lauroyl])VVEGG-NH2 [SEQ ID NO: 405]
0.0089 nM | 0.00996 nM | 0.00789 nM | 21.5 nM | 21.5 nM | 21.5 nM | 21.5 nM | 0.412 nM | 0.376 nM | 0.448 nM | H[Aib]EGS[αMeF]TSDV[αMeS]SK([PEG2′-PEG2′-γGlu-Myristoyl])LEGEAA[αMeK]E[αMeF]IAK([PEG2′-PEG2′-γGlu-Myristoyl])VVEGG-NH2 [SEQ ID NO: 408]
0.0023 nM | 0.00219 nM | 0.00231 nM | 21.5 nM | 21.5 nM | 21.5 nM | 21.5 nM | 0.094 nM | 0.101 nM | 0.0872 nM | H[Aib]EGS[αMeF]TSDV[αMeS]SK([PEG2′-PEG2′-γGlu-Lauroyl])LEGEAA[αMeK]E[Tyr(OMe)]IAK([PEG2′-PEG2′-γGlu-Lauroyl])VVEGG-NH2 [SEQ ID NO: 406]
0.0046 nM | 0.00401 nM | 0.00524 nM | 22.8 nM | 22.8 nM | 22.8 nM | 22.8 nM | 0.212 nM | 0.243 nM | 0.181 nM | H[Aib]EGS[αMeF]TSDV[αMeS]SYK([PEG2′-PEG2′-γGlu-Lauroyl])EGEAA[αMeK]EFIAK([PEG2′-PEG2′-γGlu-Lauroyl])VVEGG-NH2 [SEQ ID NO: 269]
